Assay results published in patent CN110790839A (JIANGSU HENGRUI MEDICINE CO; SHANGHAI HENGRUI …, dated 2020).

Target: T1, 人PD-1抗原(Cat.#10377H08H，Sino Biological) (human, UniProt Q15116 25-167)
T1 construct: Bought reagent, used as the analyte in Biacore; also called human PD-1; PD-1-His
Assay: SPR, Biacore T200; IgG captured on Protein A chip, human PD-1 as analyte, 1:1 Langmuir fit

T1 sequence (Q15116 25-167 limits assumed): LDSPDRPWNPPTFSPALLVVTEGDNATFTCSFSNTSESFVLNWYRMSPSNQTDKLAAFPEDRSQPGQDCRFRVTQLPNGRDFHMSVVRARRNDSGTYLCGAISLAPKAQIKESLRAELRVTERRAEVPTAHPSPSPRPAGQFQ

Row | Kd [nM] | Binder
1 | 2.8 | Ab05 (antibody, human IgG4 S228P, kappa, F234A L235A, V domains shown, also called 抗PD-1抗体Ab05) VH: EVQLVESGGGLVQPGGSLRLSCAASGFTFSSYMMSWVRQAPGKGLEWVATISGGGANTYFADSVKGRFTISRDNAKNSLYLQMNSLRAEDTAVYYCARTQIGFTNWGQGTTVTVSS VL: DIQMTQSPSSLSASVGDRVTITCLASQTIGTWLTWYQQKPGKAPKLLIYTATSLADGVPSRFSGSGSGTDFTLTISSLQPEDFATYYCQQAYSIPWTFGGGTKVEIKR
2 | 14.6 | H005-1 (antibody, human IgG4 S228P, kappa, F234A L235A, V domains shown, Parent antibody from WO2015085847; also called 亲本抗体H005-1; H005-1抗体) VH: EVQLVESGGGLVQPGGSLRLSCAASGFTFSSYMMSWVRQAPGKGLEWVATISGGGANTYYPDSVKGRFTISRDNAKNSLYLQMNSLRAEDTAVYYCARQLYYFDYWGQGTTVTVSS VL: DIQMTQSPSSLSASVGDRVTITCLASQTIGTWLTWYQQKPGKAPKLLIYTATSLADGVPSRFSGSGSGTDFTLTISSLQPEDFATYYCQQVYSIPWTFGGGTKVEIKR
3 | 2.56 | Ab01 (antibody, human IgG4 S228P, kappa, F234A L235A, V domains shown, also called 抗PD-1抗体Ab01) VH: EVQLVESGGGLVQPGGSLRLSCAASGFTFSSYMMSWVRQAPGKGLEWVATISGGGANTYFADSVKGRFTISRDNAKNSLYLQMNSLRAEDTAVYYCARTQIGFTNWGQGTTVTVSS VL: DIQMTQSPSSLSASVGDIVTITCLASQTIGTWLTWYQQKPGKAPKLLIYTATSLADGVPSRFSGSGSGTDFTLTISSLQPEDFATYYCQQVYSIPWTFGGGTKVEIKR
